T1: RING1B, full-length (UniProt Q99496 1-336)
T1 sequence (looked up): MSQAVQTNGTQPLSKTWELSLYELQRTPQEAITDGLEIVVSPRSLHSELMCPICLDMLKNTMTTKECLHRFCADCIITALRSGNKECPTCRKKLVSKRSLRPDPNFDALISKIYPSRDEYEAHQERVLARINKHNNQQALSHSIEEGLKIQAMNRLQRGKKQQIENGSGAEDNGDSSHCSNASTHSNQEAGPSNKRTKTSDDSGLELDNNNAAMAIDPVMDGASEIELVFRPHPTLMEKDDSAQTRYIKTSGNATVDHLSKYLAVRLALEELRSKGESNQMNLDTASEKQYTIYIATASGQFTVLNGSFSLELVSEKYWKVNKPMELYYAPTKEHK

B1: PCGF1 35–255 (RING finger and RAWUL domains) (domain or fragment, UniProt Q9BSM1 35-255, looked up)
chain: RVKIKDLNEHIVCCLCAGYFVDATTITECLHTFCKSCIVKYLQTSKYCPMCNIKIHETQPLLNLKLDRVMQDIVYKLVPGLQDSEEKRIREFYQSRGLDRVTQPTGEEPALSNLGLPFSSFDHSKAHYYRYDEQLNLCLERLSSGKDKNKSVLQNKYVRCSVRAEVRHLRRVLCHRLMLNPQHVQLLFDNEVLPDHMTMKQIWLSRWFGKPSPLLLQYSVK
B2: BCORL1 PUFD (1594–1711) (domain or fragment)
chain: METRDDFMFELSDKPLLPCYNLQVSVSRGPCNWFLFSDVLKRLKLSSRIFQARFPHFEITTMPKAEFYRQVASSQLLTPAERPGGLDDRSPPGSSETVELVRYEPDLLRLLGSEVEFQSCNS
B3: PCGF1 150–255/BCORL1 PUFD dimer (complex)
chain 1: LPFSSFDHSKAHYYRYDEQLNLCLERLSSGKDKNKSVLQNKYVRCSVRAEVRHLRRVLCHRLMLNPQHVQLLFDNEVLPDHMTMKQIWLSRWFGKPSPLLLQYSVK
chain 2: B2 chain

What was measured:
[1] = biological target: T1, RING1B, full-length; assay: AUC
[2] = biological target: B1; assay: AUC
[3] = biological target: KDM2B 1059–1336/SKP1 heterodimer (UniProt Q8NHM5 1059-1336; P63208 2-163); assay: ITC
Chain of KDM2B 1059–1336/SKP1 heterodimer (Q8NHM5 1059-1336, chain 1 of 2): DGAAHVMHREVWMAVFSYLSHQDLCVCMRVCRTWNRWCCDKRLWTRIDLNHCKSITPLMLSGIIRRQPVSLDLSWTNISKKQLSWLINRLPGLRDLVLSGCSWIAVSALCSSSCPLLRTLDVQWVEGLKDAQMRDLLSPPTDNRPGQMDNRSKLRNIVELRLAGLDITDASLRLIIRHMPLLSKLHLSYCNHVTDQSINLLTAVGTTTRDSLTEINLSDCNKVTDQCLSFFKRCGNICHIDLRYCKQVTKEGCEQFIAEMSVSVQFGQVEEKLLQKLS
Chain of KDM2B 1059–1336/SKP1 heterodimer (P63208 2-163, chain 2 of 2): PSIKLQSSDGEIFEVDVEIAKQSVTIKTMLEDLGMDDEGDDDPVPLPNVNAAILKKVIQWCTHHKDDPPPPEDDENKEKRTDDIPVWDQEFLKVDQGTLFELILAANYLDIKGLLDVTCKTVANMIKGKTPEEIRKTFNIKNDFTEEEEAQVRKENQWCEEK

| Binder | stoichiometry N [1] | stoichiometry N [2] | Kd [3] |
| --- | --- | --- | --- |
| B1 | 1 | – | – |
| B2 | 1 | 1 | – |
| B3 | – | – | 2800 nM |

Reference: article PMC5088048 (Structure (London, England : 1993), 2016)
